Consider three molecules from doi:10.1101/2021.12.01.470767 (bioRxiv, 2021).

Substitutions are numbered along the chain they refer to.

Holding throughout (assay): flow cytometry on cells
For orientation: A flow cytometer gives signals particle by particle.

The target of experiment [1] is full-length SARS-CoV S, cell surface-expressed (SARS-CoV, strain , UniProt P59594).
Experiment [2] addresses full-length S of bat CoV SHC014, cell surface-expressed (Bat SARS-like coronavirus RsSHC014, UniProt U5WLK5).
Experiment [3] has as its target full-length S of endemic HCoV NL63, cell surface-expressed (Human coronavirus NL63, strain not …, UniProt Q6Q1S2).
Experiment [4] deals with full-length S of endemic HCoV OC43, cell surface-expressed (Human coronavirus OC43, strain not …, UniProt P36334).
The target in experiment [5] is full-length S of endemic HCoV 229E, cell surface-expressed (Human coronavirus 229E, strain not …, UniProt P15423).
The target of experiment [6] is full-length MERS-CoV S, cell surface-expressed (MERS-CoV, strain , UniProt K9N5Q8).
Experiment [7] concerns the target full-length SARS-CoV-2 S (WT), cell surface-expressed (SARS-CoV-2, ancestral (Wuhan-Hu-1), UniProt P0DTC2).

B1: COVA1-07 (antibody, V domains shown)
VH: QVQLVESGAEVKKPGSSVKVSCKASGGTLSSYAITWVRQAPGQGLEWVGGIIPIFGTANYAQKFQGRVTITADESTSTAYMELSSLRSEDTAVYYCARVGAYDSSGYSNDYWGQGTLVTVSS
VL: DIQLTQSPATLSLSPGERATLSCRASQSVSSYLAWYQQKPGQAPRLLIYDASNRATGIPARFSGSGSGTDFTLTISSLEPEDFAVYYCQQRSNWPPRVTFGGGTKVEIK
Regarding B1, the binding result is “binds” in experiment [1]; “binds” in experiment [2]; “no binding (tested: 50 μg/mL)” in experiment [3]; “no binding (tested: 50 μg/mL)” in experiment [4]; “no binding (tested: 50 μg/mL)” in experiment [5]; “no binding (tested: 50 μg/mL)” in experiment [6]. The binding result in experiment [7] was “binds”.

B2: COVA2-18 (antibody, V domains shown)
VH: EVQLVQSGAEVKKPGSSVKVSCKASGGTFSSYAISWVRQAPGQGLEWMGGIIPIFGTTNYAQKFQGRVTITTDESTSTAYMELSSLRSEDTAVYYCARVYSYDSSGYYLEYWGQGTRVTVSS
VL: B1 VL with D1E, Q3V, R97S, V98I, G102Q, K105R, V106L
B2: the binding result in experiment [1] was “binds”; in experiment [2], “binds”; in experiment [3] it was “no binding (tested: 50 μg/mL)”; in experiment [4], “no binding (tested: 50 μg/mL)”; in experiment [5], “no binding (tested: 50 μg/mL)”; in experiment [6] it was “no binding (tested: 50 μg/mL)”. Besides, in experiment [7], the binding result is “binds”.

B3: COVA2-14 (antibody, V domains shown)
VH: B2 VH with E1Q, S35I, T58A, Y100R, S101Y, L109E, E110D, R117L
VL: B1 VL with D1E, Q3V, K39E, R97M, V98Y, G102Q
Turning to B3, the binding result was “binds” in experiment [1]; “binds” in experiment [2]; “no binding (tested: 50 μg/mL)” in experiment [3]; “no binding (tested: 50 μg/mL)” in experiment [4]; “no binding (tested: 50 μg/mL)” in experiment [5]; “no binding (tested: 50 μg/mL)” in experiment [6]. The binding result in experiment [7] is listed as “binds”.
